No end group written: not given here.

Test [1] has as its target T1, cell-surface-expressed hamster nucleolin (on CHO K1, CHO 677 and CHO 618 cells) (Chinese hamster), A0A8C2.
T1 chain: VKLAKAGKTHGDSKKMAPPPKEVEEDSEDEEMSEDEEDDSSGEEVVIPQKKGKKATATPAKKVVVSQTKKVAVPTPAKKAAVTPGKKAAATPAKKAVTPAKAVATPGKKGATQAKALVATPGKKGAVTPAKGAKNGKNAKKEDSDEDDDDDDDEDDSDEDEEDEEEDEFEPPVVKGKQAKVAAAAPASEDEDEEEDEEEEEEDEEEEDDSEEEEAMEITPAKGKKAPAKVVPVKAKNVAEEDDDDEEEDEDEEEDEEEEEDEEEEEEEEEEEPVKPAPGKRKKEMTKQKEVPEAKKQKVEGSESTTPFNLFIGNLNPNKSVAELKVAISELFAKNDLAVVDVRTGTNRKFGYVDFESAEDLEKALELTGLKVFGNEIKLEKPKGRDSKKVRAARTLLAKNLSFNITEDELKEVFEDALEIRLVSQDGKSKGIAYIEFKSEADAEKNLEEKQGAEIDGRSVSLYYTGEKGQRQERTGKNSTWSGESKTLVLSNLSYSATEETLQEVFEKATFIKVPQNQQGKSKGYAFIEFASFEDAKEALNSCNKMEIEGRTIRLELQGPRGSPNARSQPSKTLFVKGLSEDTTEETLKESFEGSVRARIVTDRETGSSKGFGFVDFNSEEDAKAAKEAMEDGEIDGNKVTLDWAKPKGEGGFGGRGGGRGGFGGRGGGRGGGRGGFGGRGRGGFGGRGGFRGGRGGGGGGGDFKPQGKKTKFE
Kind of test: biotinylated HB-19A on wild type CHO K1 cells, streptavidin-HRP.

Test [2] addresses GST-G, GST fusion of the RGG domain of human nucleolin alone (human), P19338. Kind of test: dose series 0-10 µM biotinylated HB-19A, avidin-agarose pull-down, anti-GST immunoblot.
Test [3] has as its target GST-R1234G, GST fusion of the C-terminal part of human nucleolin (RBDs I-IV and RGG domain) (human) (UniProt P19338). Described as above.
Test [4] addresses GST-R234G, GST fusion of human nucleolin RBDs II, III, IV and the RGG domain (human) (UniProt P19338). Described as above.
The target in test [5] is cell-surface-expressed human nucleolin (on HeLa P4 and MT4 cells) (human), P19338. Kind of test: 125I-labeled HB-19A on HeLa P4 cell monolayers, wash at 300 mM NaCl.
Chain of cell-surface-expressed human nucleolin (on HeLa P4 and MT4 cells) (human), P19338 (P19338 2-710): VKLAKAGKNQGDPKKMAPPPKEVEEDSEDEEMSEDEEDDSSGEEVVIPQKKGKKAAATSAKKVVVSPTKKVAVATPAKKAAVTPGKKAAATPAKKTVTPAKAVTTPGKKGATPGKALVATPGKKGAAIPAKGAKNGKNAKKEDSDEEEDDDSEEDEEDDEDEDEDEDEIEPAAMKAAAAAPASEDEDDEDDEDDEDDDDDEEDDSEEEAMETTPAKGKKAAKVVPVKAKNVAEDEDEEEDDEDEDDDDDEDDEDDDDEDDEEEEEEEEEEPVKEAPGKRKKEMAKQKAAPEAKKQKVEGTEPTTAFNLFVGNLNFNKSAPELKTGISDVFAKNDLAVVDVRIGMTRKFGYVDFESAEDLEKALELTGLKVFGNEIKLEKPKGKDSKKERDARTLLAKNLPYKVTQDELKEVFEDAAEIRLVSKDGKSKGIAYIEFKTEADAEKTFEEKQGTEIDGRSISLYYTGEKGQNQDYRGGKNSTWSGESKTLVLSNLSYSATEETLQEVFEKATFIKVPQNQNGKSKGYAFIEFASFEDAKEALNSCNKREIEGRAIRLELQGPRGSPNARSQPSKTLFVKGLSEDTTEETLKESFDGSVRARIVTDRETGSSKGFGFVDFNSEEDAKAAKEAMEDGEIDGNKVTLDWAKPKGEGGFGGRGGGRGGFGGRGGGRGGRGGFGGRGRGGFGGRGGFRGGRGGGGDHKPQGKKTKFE

Chain of GST-G, GST fusion of the RGG domain of human nucleolin alone (human), P19338 (P19338 648-710): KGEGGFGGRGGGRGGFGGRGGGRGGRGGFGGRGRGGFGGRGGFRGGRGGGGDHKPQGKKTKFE
Chain of GST-R1234G, GST fusion of the C-terminal part of human nucleolin (RBDs I-IV and RGG domain) (human) (P19338 308-707, stated change not applied): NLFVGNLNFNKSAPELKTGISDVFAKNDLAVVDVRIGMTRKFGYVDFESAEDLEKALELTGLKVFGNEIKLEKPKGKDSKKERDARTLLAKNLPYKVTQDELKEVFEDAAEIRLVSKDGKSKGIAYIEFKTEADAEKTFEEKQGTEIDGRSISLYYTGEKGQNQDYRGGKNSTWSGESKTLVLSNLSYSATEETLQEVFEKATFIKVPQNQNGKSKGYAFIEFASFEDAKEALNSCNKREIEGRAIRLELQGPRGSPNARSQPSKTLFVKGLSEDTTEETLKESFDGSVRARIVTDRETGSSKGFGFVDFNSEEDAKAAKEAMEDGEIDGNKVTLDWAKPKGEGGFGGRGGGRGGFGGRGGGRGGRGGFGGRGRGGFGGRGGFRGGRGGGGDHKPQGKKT
Chain of GST-R234G, GST fusion of human nucleolin RBDs II, III, IV and the RGG domain (human) (P19338 389-710, stated change not applied): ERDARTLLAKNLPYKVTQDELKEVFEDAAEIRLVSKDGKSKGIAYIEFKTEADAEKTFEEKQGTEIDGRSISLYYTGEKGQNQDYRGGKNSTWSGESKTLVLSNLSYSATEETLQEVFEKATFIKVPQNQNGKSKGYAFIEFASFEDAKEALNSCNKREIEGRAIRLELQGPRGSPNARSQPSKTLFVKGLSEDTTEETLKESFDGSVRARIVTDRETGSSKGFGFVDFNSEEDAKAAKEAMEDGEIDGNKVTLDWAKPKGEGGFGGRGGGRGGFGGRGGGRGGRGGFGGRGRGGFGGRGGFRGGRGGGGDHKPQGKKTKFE

B1: HB-19A, pseudopeptide 5[K-Psi(CH2N)-PR]-TASP with a modified TASP template (peptide)
peptide: Lys-Pro-Arg
chain: KKKKA
modifications: also: reduced amide bond Psi(CH2N) between Lys and Pro in each KPR, five KPR copies on the KKKKA template: alpha-NH2 of the four template Lys and epsilon-NH2 of the N-terminal Lys, template Lys linked through their epsilon-NH2 groups
Regarding B1, the HB-19A concentration at saturation of binding in test [1] came to 1 µM. For the same molecule, the HB-19A concentration at maximum binding in test [2], in test [3] and in test [4] was 5 µM in each case. The molecule also returned an HB-19A concentration at saturation of specific binding in test [5] of 1 µM.

The record behind these values is patent publication US20040002457A1, “Inhibition of virus anchorage by RGG domain of a cell surface-expressed protein, polynucleotide coding for said RGG domain, therapeutic uses thereof by inhibition of microorganism or protein ligand binding to the cell-surface-expressed protein” (priority 2002, published 2004).
